This assay deals with wild-type ElDyP lacking the His6 tag (subtilisin A-treated, for crystallization) (Enterobacter lignolyticus). The assay can be described thus: crystal structure.

Here are results for 1 substance from publication PMC5751952.

As a reminder, the stoichiometry N is a count of units in the complex or per binding partner.

“wild-type ElDyP lacking the His6 tag (subtilisin A-treated, for crystallization) (enzyme)” returned a stoichiometry N of 2.
